Source: doi:10.1101/2024.04.30.591854

Molecular target: RBK21 variable region (residues 148-299) (Plasmodium falciparum (strain Lek174))
Assay: SPR

KIR2DL1 as used in the SPR experiments with RBK21, sequence (P43626 22-348): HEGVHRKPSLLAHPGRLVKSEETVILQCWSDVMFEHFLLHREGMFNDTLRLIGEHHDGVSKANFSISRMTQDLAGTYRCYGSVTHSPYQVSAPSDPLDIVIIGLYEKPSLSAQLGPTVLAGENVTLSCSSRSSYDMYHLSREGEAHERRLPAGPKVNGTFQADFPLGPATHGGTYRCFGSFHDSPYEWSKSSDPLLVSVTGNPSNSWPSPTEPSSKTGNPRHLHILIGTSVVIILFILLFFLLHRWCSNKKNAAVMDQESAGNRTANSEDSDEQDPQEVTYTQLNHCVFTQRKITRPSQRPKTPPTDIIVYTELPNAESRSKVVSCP
KIR2DS1 as used in the SPR experiment with RBK21, sequence (Q14954 22-304): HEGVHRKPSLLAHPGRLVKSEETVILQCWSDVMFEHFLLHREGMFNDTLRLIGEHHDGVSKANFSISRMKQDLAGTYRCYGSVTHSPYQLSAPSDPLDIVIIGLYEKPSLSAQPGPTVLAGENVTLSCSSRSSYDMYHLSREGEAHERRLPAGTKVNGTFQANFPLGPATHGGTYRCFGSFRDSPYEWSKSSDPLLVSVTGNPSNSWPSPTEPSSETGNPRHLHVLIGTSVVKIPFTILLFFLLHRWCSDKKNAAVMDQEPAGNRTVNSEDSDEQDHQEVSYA

| Substance | Kd [nM] |
| --- | --- |
| KIR2DL1 as used in the SPR experiments with RBK21 (from UniProt P43626 22-348) (receptor) | 450 |
| KIR2DS1 as used in the SPR experiment with RBK21 (from UniProt Q14954 22-304) (receptor) | 2000 |
